# Laboratory results taken from patent US9389182B2 (University of Southern California, priority 2011, dated 2016).
# B1: catalase: catalase with the AMC fluorophore bound (AMC-labeled catalase) (conjugate, UniProt P00432 2-527, looked up)
# Catalase: ADNRDPASDQMKHWKEQRAAQKPDVLTTGGGNPVGDKLNSLTVGPRGPLLVQDVVFTDEMAHFDRERIPERVVHAKGAGAFGYFEVTHDITRYSKAKVFEHIGKRTPIAVRFSTVAGESGSADTVRDPRGFAVKFYTEDGNWDLVGNNTPIFFIRDALLFPSFIHSQKRNPQTHLKDPDMVWDFWSLRPESLHQVSFLFSDRGIPDGHRHMNGYGSHTFKLVNANGEAVYCKFHYKTDQGIKNLSVEDAARLAHEDPDYGLRDLFNAIATGNYPSWTLYIQVMTFSEAEIFPFNPFDLTKVWPHGDYPLIPVGKLVLNRNPVNYFAEVEQLAFDPSNMPPGIEPSPDKMLQGRLFAYPDTHRHRLGPNYLQIPVNCPYRARVANYQRDGPMCMMDNQGGAPNYYPNSFSAPEHQPSALEHRTHFSGDVQRFNSANDDNVTQVRTFYLKVLNEEQRKRLCENIAGHLKDAQLFIQKKAVKNFSDVHPEYGSRIQALLDKYNEEKPKNAVHTYVQHGSHLSAREKANL
# modifications: AMC fluorophore label
# How the values were obtained:
# BSA [1] = molecular target: T1, BSA (Bos taurus, UniProt P02769); assay: Tryptamine competition for non-covalent AMC binding sites on BSA; design: species or system bovine; conditions: 100 fold excess
# T1 construct: purchased thermo-Fisher BP1605-100
# T1 sequence (P02769 25-607): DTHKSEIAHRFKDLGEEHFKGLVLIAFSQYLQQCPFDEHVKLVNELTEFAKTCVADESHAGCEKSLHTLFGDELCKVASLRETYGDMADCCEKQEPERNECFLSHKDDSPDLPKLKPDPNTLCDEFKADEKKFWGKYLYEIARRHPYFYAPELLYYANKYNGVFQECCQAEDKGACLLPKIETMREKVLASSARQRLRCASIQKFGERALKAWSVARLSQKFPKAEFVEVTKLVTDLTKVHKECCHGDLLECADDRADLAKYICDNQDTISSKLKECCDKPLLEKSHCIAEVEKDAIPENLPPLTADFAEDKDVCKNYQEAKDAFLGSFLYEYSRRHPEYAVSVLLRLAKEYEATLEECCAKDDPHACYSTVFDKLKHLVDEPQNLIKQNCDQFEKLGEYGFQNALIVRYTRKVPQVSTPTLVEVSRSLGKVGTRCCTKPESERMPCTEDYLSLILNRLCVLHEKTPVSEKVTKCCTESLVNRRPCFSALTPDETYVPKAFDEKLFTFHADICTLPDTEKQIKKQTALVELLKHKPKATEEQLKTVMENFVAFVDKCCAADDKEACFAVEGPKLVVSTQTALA
# Text: (§1) In some experiments samples were pre-treated with either N-(3-Dimethylaminopropyl)-N′-ethylcarbodiimide hydrochloride (Sigma-Aldrich, MO, USA, catalogue#E6383-1G) to block free protein carboxyl groups, with sulfo-N-hydroxysulfosuccinimide-acetate (Pierce, Rockford, Ill., USA, catalogue #26777) to block free protein amino groups, or with tryptamine (Sigma-Aldrich, MO, USA, catalogue#193747-10G) to disrupt potential non-covalent interactions in protein hydrophobic pockets.
# Another possibility was that AMC might be sequestered in protein hydrophobic pockets by non-covalent interactions. […] The ability of the BSA/AMC complex to function as a substrate for proteolysis was also tested.
# MEF cell lysates = assay: Degradation of modified Hb-AMC by MEF cell lysates; assay type: biochemical, murine; conditions: oxidative modification by H2O2 or peroxynitrite
# Procedure: FIG. 7. Proteolytic Susceptibility of Modified AMC-labeled Proteins. (A) The capacity of 20S proteasome to degrade both the native and oxidized forms of Hb-AMC and BSA-AMC was measured. For both assays, 1 μg/ml of purified 20S proteasome was combined with 10 μg/ml of Hb-AMC, Hbox-AMC, BSA-AMC, or BSAox-AMC and incubated for 4 hr at 37° C. Protein degradation was then measured as per FIG. 4. Hbox-AMC, and BSAox were prepared by treating Hb-AMC and BSA-AMC with 1.0 mM H2O2 followed by extensive dialysis. (B) The Capacity of MEF cell lysates to degrade various modified forms of Hb-AMC was measured. Hb-AMC was modified by incubation with dilute HCl at pH 4, 10% 2-mercaptoethanol, 70% methanol, 1 mM peroxynitrite, or 1 mM H2O2, or was boiled at 100° C. for 60 minutes, or subjected to freeze-thawing at −80° C. The substrates were then extensively dialyzed and incubated with 150 μg/ml of MEF cell lysates for 4 hr. […]
# Murine embryonic fibroblasts (MEF) from ATCC (Manassas, Va., USA, catalogue CRL-2214) were grown in Dulbecco's Modified Eagle's Medium (DMEM, Mediatech, Manassas, Va., catalogue #10-013-CV) supplemented with 10% Fetal Bovine Serum (Hyclone, Logan, Utah, catalog #SH30070.03). […] The lysates were then centrifuged at 10,000 g for 10 minutes, after which the supernatants were retained (the pellets discarded) and protein content was determined by BCA assay.
# chymotrypsin = chymotrypsin (Bos taurus, UniProt P00766); assay: Proteolysis of Hb-AMC by chymotrypsin (AMC release); conditions: pH 7.8, 4 hr at 37° C.
# Procedure: (§2) In each experiment, pH was adjusted appropriately for the proteinase studied, and samples were incubated at 37° C. for 4 hours.
# [2] = pH stability of the Hb-AMC complex; assay type: physicochemical; conditions: pH 1-12, 4 hr, read after readjusting to pH 7.8
# Procedure: The stability of protein-AMC adducts over the same broad range of pH was determined. […] The viability of protein-AMC complexes as substrates for proteases was tested with widely different pH optima.
# [3] = Stability of Hb-AMC after frozen storage or denaturation (background release of free AMC); assay type: physicochemical
# Procedure: FIG. 5. Stability of AMC-labeled Hemoglobin After Frozen Storage or Denaturation. (A) Hb-AMC was stored at −20° C. for up to 21 weeks. […] Release of free AMC from the Hb-AMC complex (background fluorescence) was then measured in comparison with control (untreated Hb-AMC). In all three panels, values are means±SE's, n=3;
# The stability of AMC-labeled substrates, the resistance of the AMC-protein linkage to various treatments, and the reproducibility of proteolytic assays after prolonged storage are important concerns in weighing the usefulness of the technique of various embodiments of the present invention.
# Embodiments of the present invention provide a new way to label proteins for studies of oxidation-induced changes in proteolytic susceptibility. In addition to oxidants, proteolytic substrates are often subjected to various other modifying or denaturing conditions, to test for effects on proteolytic susceptibility, therefore it is important to test the stability of AMC-labeled substrates over a range of harsh conditions.
# proteinase K = molecular target: T2, proteinase K (Parengyodontium album, UniProt P06873); assay: Proteolysis of Hb-AMC by proteinase K (AMC release); assay type: biochemical; conditions: pH 11, 4 hr at 37° C.
# T2 construct: purchased Oncor S4508
# T2 sequence (P06873 106-384): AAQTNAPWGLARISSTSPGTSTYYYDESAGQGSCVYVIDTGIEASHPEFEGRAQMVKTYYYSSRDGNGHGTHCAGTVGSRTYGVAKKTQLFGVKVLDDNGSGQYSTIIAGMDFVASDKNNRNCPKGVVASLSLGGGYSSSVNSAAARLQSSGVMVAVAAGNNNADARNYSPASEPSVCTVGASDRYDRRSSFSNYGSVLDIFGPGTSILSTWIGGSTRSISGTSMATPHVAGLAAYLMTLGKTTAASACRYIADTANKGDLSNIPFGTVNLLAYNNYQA
# Trypsin = assay: Proteolysis of AMC-labeled proteins by trypsin, fluorescence assay (AMC release); assay type: biochemical; conditions: for substrate for proteolysis by trypsin, release of fluorescent AMC: AMC-labeled protein 10 μg/ml, 10 μM trypsin
# Procedure: FIG. 3. Proteolysis of AMC-labeled Proteins by Trypsin. […] Values are means±SE's, n=3. […] All assay conditions (including trypsin concentration) were identical to those in A, and each substrate protein was used at a final concentration of 10 μg/ml. […] Values are means±SE's, n=3;
# FIG. 4. Protease and Substrate Titration, and Particle Size of Proteolytic Degradation Products. […] Values are means±SE's, n=4, for which the fluorescence of controls was subtracted. […] Background fluorescence or radioactivity were measured in the absence of protease (proteolysis buffer alone), and proteolysis was measured by increased fluorescence or acid-soluble radioactivity after incubation with either 10 μM Trypsin, 1 μg/ml purified 20S proteosome, or 150 μg/ml MEF cell lysate. Percent degradation of Hb-AMC is reported as the percentage of total fluorescence that could be released from Hb-AMC after exhaustive proteolytic digestion (not shown), whereas percent degradation of [3H]Hb is reported as the percent of total (initial) radioactive counts released into TCA-soluble form by proteolysis. All values are means±SE's, n=3;
# pepsin = pepsin (Sus scrofa, UniProt P00791); assay: Proteolysis of Hb-AMC by pepsin (AMC release); conditions: pH 2, 4 hr at 37° C.
# Chain of pepsin (P00791 60-385): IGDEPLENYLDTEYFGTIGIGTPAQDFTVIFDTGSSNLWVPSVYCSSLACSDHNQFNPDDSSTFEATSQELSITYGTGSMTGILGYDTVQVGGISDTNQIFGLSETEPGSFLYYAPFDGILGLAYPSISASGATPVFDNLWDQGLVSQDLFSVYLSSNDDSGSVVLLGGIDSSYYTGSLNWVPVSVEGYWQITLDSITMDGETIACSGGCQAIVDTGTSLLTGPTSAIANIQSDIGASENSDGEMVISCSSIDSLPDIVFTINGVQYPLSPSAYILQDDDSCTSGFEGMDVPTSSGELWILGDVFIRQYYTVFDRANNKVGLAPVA
# Procedure: as §2
# purified 20S proteasome = molecular target: T3, purified 20S proteasome (Homo sapiens, UniProt P28072+P28074+Q99436); assay: Degradation of native and oxidized AMC-labeled proteins by purified 20S proteasome; assay type: biochemical; conditions: for increase in susceptibility to proteasomal degradation: following mild oxidation with H2O2 (1.0 mM); for substrate for the purified proteasome: unoxidized form
# T3 construct: purchased Biomol PW8720-0050
# Procedure: FIG. 7. Proteolytic Susceptibility of Modified AMC-labeled Proteins. (A) The capacity of 20S proteasome to degrade both the native and oxidized forms of Hb-AMC and BSA-AMC was measured. For both assays, 1 μg/ml of purified 20S proteasome was combined with 10 μg/ml of Hb-AMC, Hbox-AMC, BSA-AMC, or BSAox-AMC and incubated for 4 hr at 37° C. Protein degradation was then measured as per FIG. 4. Hbox-AMC, and BSAox were prepared by treating Hb-AMC and BSA-AMC with 1.0 mM H2O2 followed by extensive dialysis. (B) The Capacity of MEF cell lysates to degrade various modified forms of Hb-AMC was measured. Hb-AMC was modified by incubation with dilute HCl at pH 4, 10% 2-mercaptoethanol, 70% methanol, 1 mM peroxynitrite, or 1 mM H2O2, or was boiled at 100° C. for 60 minutes, or subjected to freeze-thawing at −80° C. The substrates were then extensively dialyzed and incubated with 150 μg/ml of MEF cell lysates for 4 hr. In both panels, values are means±SE's, n=3.
# BSA [4] = molecular target: T1, BSA; assay: Blocking of free carboxyl groups on BSA before AMC labeling (SDS-PAGE, native gels, gel fluorescence); design: species or system bovine; conditions: 50 mg BSA, 1 h
# Procedure: FIG. 2. […] Values are means±SE, n=3. […] Values are means±SE, n=3. […] A silver stain was later performed. (D) N-(3-Dimethylamineopropyl)-N′-ethylcarbodiimide (1 ng/ml to 100 μg/ml) which blocks free carboxyl groups, was incubated with 50 mg of BSA for 1 hr. BSA was extensively dialyzed then prepared as in panel (C). Increasing concentrations of N-(3-Dimethylamineopropyl)-N′-ethylcarbodiimide, caused a progressive decrease in BSA's electrophoretic mobility, and loss of fluorescence at 66 kDa; a representative gel is shown to the left of the panel, and fluorescence is quantified in the graph to the right; […]
# For SDS Page gels, samples were mixed with 25% Nupage loading Dye (Invitrogen, Carlsbad, Calif., USA, catalogue#NP0007) containing 5% 2-mercaptoethanol, Samples were boiled for 3 minutes then added to a 12% Tris-glycine SDS page gel. […] In experiments where gel fluorescence was analyzed, gels were placed in a chamber and exposed to an excitation wavelength of 365 nm. […]
# BSA [5] = molecular target: T1, BSA; assay: Blocking of exposed amine groups on BSA before AMC labeling; design: species or system bovine; conditions: 0.5-50 mM
# Text: as §1
# To test whether exposed amine groups on the protein might react with the carboxyl group on the fluorophore, we used 0.5-50 mM sulfo-NHS-acetate was used to block exposed amine groups on BSA. […] This implies that the complex formed between AMC and BSA is independent of exposed protein amine groups.
# [6] = stored at −20° C., repeated trials over 150 days
molecule,measurement,setting,value
NCCc1c[nH]c2ccccc12 [tryptamine],association between AMC and BSA blocked,BSA [1],above 30%
same,effect on effectiveness of BSA as a proteolytic substrate,BSA [1],minimal effects
"Hb-AMC: AMC-labeled hemoglobin, made by reductive labeling with AMC and sodium cyanoborohydride",degradation by MEF cell extracts versus unmodified (control) Hb-AMC,MEF cell lysates,significantly increased
same,substrate for proteolysis,chymotrypsin,excellent substrate
same,decrease in stability of the complex,[2],< 0.2%
same,stability of the complex to modifying or denaturing conditions,"[3]; 1 mM H2O2, 1 mM peroxynitrite, dilute HCl pH 4, 10% 2-mercaptoethanol, freeze-thawing at −80° C., or 50% methanol",almost completely stable
same,breakdown of the Hb-AMC complex,[3]; boiling (100° C.) for 60 minutes,3.1%
same,effect of repeated freeze thaw cycles on stability of the complex (background release of free AMC),[3]; repeated −20° C. freeze-thaw cycles,did not significantly affect the stability
same,variation of background AMC release on storage,[3]; [6],less than 15%
same,substrate for proteolysis,proteinase K,excellent substrate
same,"substrate for proteolysis by trypsin, release of fluorescent AMC",Trypsin,effective and sensitive substrates
same,increase in AMC liberation after trypsin digestion,Trypsin; Hb labeled by full procedure with AMC and NaCNBH3,80 fold
same,increase in AMC liberation following incubation with trypsin,"Trypsin; Hb reacted with AMC alone, no NaCNBH3",six
same,background AMC release relative to Hb reacted with AMC alone,Trypsin; full labeling procedure with NaCNBH3,one-sixth
same,substrate for proteolysis,"Trypsin; pH 7.8, 4 hr at 37° C.",excellent substrate
same,variation of trypsin-induced release of AMC on storage,Trypsin; [6],less than 15%
same,substrate for proteolysis,pepsin,excellent substrate
same,sensitivity of proteolytic measurement versus [3H]Hb,purified 20S proteasome; 1 μg/ml purified 20S proteasome,broadly comparable sensitivity
same,increase in susceptibility to proteasomal degradation,purified 20S proteasome,more than 300 fold
same,substrate for the purified proteasome,purified 20S proteasome,rather poor substrates
CCN=C=NCCCN(C)C.Cl [N-(3-Dimethylaminopropyl)-N′-ethylcarbodiimide hydrochloride],"protein carboxyl-group blocking, decreased electrophoretic mobility",BSA [4],dose-dependent protein carboxyl-group blocking
same,"formation of BSA-AMC adducts, fluorescent band at 66 kDa",BSA [4]; then AMC and NaCNBH3,prevented the formation of BSA-AMC adducts
SOD-AMC: AMC-labeled superoxide dismutase,"substrate for proteolysis by trypsin, release of fluorescent AMC",Trypsin,effective and sensitive substrates
BSA-AMC: AMC-labeled bovine serum albumin,"substrate for proteolysis by trypsin, release of fluorescent AMC",Trypsin,effective and sensitive substrates
same,increase in susceptibility to proteasomal degradation,purified 20S proteasome,four
same,substrate for the purified proteasome,purified 20S proteasome,rather poor substrates
"CC(=O)ON1C(=O)CC(S(=O)(=O)O)C1=O (centres unmarked) [sulfo-NHS-acetate, sulfo-N-hydroxysulfosuccinimide-acetate]",change in the fluorescence of the BSA-AMC complex,BSA [5],no significant change
same,free amine groups on BSA blocked,BSA [5],80%
B1,"substrate for proteolysis by trypsin, release of fluorescent AMC",Trypsin,effective and sensitive substrates
